From US20200199234A1 (published 2020)

T1: human CD19 on Nalm6 B cells (human, UniProt P15391 20-556)
T1 sequence: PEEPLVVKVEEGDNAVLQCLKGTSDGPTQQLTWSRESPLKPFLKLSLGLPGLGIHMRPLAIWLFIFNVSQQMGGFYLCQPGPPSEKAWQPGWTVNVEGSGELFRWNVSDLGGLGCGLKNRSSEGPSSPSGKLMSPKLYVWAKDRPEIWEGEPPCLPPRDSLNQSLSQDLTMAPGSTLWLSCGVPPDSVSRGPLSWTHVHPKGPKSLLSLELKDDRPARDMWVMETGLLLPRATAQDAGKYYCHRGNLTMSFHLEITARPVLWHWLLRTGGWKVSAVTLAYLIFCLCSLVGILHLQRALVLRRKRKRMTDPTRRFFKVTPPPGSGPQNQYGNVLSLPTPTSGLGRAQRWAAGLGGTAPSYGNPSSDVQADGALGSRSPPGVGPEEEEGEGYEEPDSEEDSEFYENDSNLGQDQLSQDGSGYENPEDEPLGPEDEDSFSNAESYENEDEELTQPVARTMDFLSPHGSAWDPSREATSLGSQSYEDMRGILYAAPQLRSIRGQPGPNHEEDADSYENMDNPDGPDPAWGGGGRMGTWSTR


How the values were obtained:
[1] = target: T1, human CD19 on Nalm6 B cells; experiment: flow cytometry on Nalm6 cells
[2] = target: T2, human CD28 expressed on cells (CHO-k1 stably overexpressing human CD28; T cells in functional assays) (human, UniProt P10747 19-220); experiment: flow cytometry on CHOk1-CD28 cells
T2 construct: also called CHO huCD28; CHOk1-CD28

Row | EC50 [1] | EC50 [2] | Binder
1 | 0.416 nM | 15.6 nM | Molecule 18B: CD19 (8B8-2B11)-CD28 (SA v15) 1+1 (bispecific antibody, human IgG1, kappa, L234A L235A, also called P1AE9040; CD19-CD28 v15) heavy 1: not shown heavy 2: DIVMTQTPLSLSVTPGQPASISCKSSQSLETSTGTTYLNWYLQKPGQSPQLLIYRVSKRFSGVPDRFSGSGSGTDFTLKISRVEAEDVGVYYCLQLLEDPYTFGQGTKLEIKSSASTKGPSVFPLAPSSKSTSGGTAALGCLVKDYFPEPVTVSWNSGALTSGVHTFPAVLQSSGLYSLSSVVTVPSSSLGTQTYICNVNHKPSNTKVDKKVEPKSCDKTHTCPPCPAPEAAGGPSVFLFPPKPKDTLMISRTPEVTCVVVDVSHEDPEVKFNWYVDGVEVHNAKTKPREEQYNSTYRVVSVLTVLHQDWLNGKEYKCKVSNKALGAPIEKTISKAKGQPREPQVCTLPPSRDELTKNQVSLSCAVKGFYPSDIAVEWESNGQPENNYKTTPPVLDSDGSFFLVSKLTVDKSRWQQGNVFSCSVMHEALHNHYTQKSLSLSP light 1: not shown light 2: QVQLVQSGAEVKKPGASVKVSCKASGYTFTDYIMHWVRQAPGQGLEWMGYINPYNDGSKYTEKFQGRVTMTSDTSISTAYMELSRLRSDDTAVYYCARGTYYYGPQLFDYWGQGTTVTVSSASVAAPSVFIFPPSDEQLKSGTASVVCLLNNFYPREAKVQWKVDNALQSGNSQESVTEQDSKDSTYSLSSTLTLSKADYEKHKVYACEVTHQGLSSPVTKSFNRGEC
2 | 0.363 nM | 150 nM | Molecule 18D: CD19 (8B8-2B11)-CD28 (SA v11) 1+1 (bispecific antibody, human IgG1, kappa, L234A L235A, also called P1AF0377; CD19-CD28 v11) heavy 1: not shown heavy 2: DIVMTQTPLSLSVTPGQPASISCKSSQSLETSTGTTYLNWYLQKPGQSPQLLIYRVSKRFSGVPDRFSGSGSGTDFTLKISRVEAEDVGVYYCLQLLEDPYTFGQGTKLEIKSSASTKGPSVFPLAPSSKSTSGGTAALGCLVKDYFPEPVTVSWNSGALTSGVHTFPAVLQSSGLYSLSSVVTVPSSSLGTQTYICNVNHKPSNTKVDKKVEPKSCDKTHTCPPCPAPEAAGGPSVFLFPPKPKDTLMISRTPEVTCVVVDVSHEDPEVKFNWYVDGVEVHNAKTKPREEQYNSTYRVVSVLTVLHQDWLNGKEYKCKVSNKALGAPIEKTISKAKGQPREPQVCTLPPSRDELTKNQVSLSCAVKGFYPSDIAVEWESNGQPENNYKTTPPVLDSDGSFFLVSKLTVDKSRWQQGNVFSCSVMHEALHNHYTQKSLSLSP light 1: not shown light 2: QVQLVQSGAEVKKPGASVKVSCKASGYTFTDYIMHWVRQAPGQGLEWMGYINPYNDGSKYTEKFQGRVTMTSDTSISTAYMELSRLRSDDTAVYYCARGTYYYGPQLFDYWGQGTTVTVSSASVAAPSVFIFPPSDEQLKSGTASVVCLLNNFYPREAKVQWKVDNALQSGNSQESVTEQDSKDSTYSLSSTLTLSKADYEKHKVYACEVTHQGLSSPVTKSFNRGEC
3 | 0.368 nM | 10.8 nM | Molecule 18E: CD19 (8B8-2B11)-CD28 (SA v27) 1+1 (bispecific antibody, human IgG1, kappa, L234A L235A, also called P1AF0378; CD19-CD28 v27) heavy 1: not shown heavy 2: DIVMTQTPLSLSVTPGQPASISCKSSQSLETSTGTTYLNWYLQKPGQSPQLLIYRVSKRFSGVPDRFSGSGSGTDFTLKISRVEAEDVGVYYCLQLLEDPYTFGQGTKLEIKSSASTKGPSVFPLAPSSKSTSGGTAALGCLVKDYFPEPVTVSWNSGALTSGVHTFPAVLQSSGLYSLSSVVTVPSSSLGTQTYICNVNHKPSNTKVDKKVEPKSCDKTHTCPPCPAPEAAGGPSVFLFPPKPKDTLMISRTPEVTCVVVDVSHEDPEVKFNWYVDGVEVHNAKTKPREEQYNSTYRVVSVLTVLHQDWLNGKEYKCKVSNKALGAPIEKTISKAKGQPREPQVCTLPPSRDELTKNQVSLSCAVKGFYPSDIAVEWESNGQPENNYKTTPPVLDSDGSFFLVSKLTVDKSRWQQGNVFSCSVMHEALHNHYTQKSLSLSP light 1: not shown light 2: QVQLVQSGAEVKKPGASVKVSCKASGYTFTDYIMHWVRQAPGQGLEWMGYINPYNDGSKYTEKFQGRVTMTSDTSISTAYMELSRLRSDDTAVYYCARGTYYYGPQLFDYWGQGTTVTVSSASVAAPSVFIFPPSDEQLKSGTASVVCLLNNFYPREAKVQWKVDNALQSGNSQESVTEQDSKDSTYSLSSTLTLSKADYEKHKVYACEVTHQGLSSPVTKSFNRGEC
